The labels stand for the following.
T1: human FLT3 (human, UniProt P36888 27-541, limits assumed)
T1 construct: Soluble analyte hFLT3 in SPR; also called hFLT3; huFlt3
T1 sequence: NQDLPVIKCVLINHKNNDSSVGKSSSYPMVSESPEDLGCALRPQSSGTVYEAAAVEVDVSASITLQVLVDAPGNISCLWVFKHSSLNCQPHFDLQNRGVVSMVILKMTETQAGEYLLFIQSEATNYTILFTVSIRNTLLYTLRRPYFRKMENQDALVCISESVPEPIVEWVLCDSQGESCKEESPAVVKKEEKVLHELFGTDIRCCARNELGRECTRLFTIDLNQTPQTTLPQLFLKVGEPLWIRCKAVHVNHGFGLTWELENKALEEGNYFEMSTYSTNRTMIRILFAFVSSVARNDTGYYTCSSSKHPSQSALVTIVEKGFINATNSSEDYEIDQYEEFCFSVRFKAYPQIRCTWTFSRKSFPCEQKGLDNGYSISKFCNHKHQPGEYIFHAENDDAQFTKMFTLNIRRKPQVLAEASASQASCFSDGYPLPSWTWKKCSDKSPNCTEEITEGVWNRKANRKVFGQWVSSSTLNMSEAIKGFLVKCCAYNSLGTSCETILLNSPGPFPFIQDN

B1: P4H11 (scFv format) (scFv)
scFv: EVQLLESGGGLVQPGGSLRLSCAASGFTFSSYAMNWVRQAPGKGLEWVSSISGGGRSTYYADSVKGRFTISRDNSKNTLYLQMNSLRAEDTAVYYCARDLSPSDVGWGYGFDIWGQGTLVTVSSGGGGSGGGGSGGGGSEIVLTQSPGTLSLSPGERATLSCRASQSVSNTYLAWYQQKPGQAPRLLIYDTSSRATGIPDRFSGSGSGTDFTLTISRLEPEDFAVYYCQQYGSSLTFGQGTKVEIK
B2: P14G2 (scFv format) (scFv)
scFv: EVQLLESGGGLVQPGGSLRLSCAASGFTFSNYVMNWVRQAPGKGLEWVSAISGSGATTYYADSVKGRFTISRDNSKNTLYLQMNSLRAEDTAVYYCVSGLWAGGIWGQGTLVTVSSGGGGSGGGGSGGGGSDIQMTQSPSSLSASVGDRVTITCRASQSISSYLNWYQQKPGKAPKLLIYDASDLQRGVPSRFSGSGSGTDFTLTISSLQPEDFATYYCQQSYNTPWTFGQGTKVEIK
B3: P7F9 (scFv format) (scFv)
scFv: EVQLLESGGGLVQPGGSLRLSCAASGFTFSSYAMSWVRQAPGKGLEWVSAIGGSGGSTYYADSVKGRFTISRDNSKNTLYLQMNSLRAEDTAMYYCARDYYAFSDPAYGGMDVWGQGTLVTVSSGGGGSGGGGSGGGGSNFMLTQPHSVSESPGKTVTISCTRSSGSIASNYVQWYQQKPGQAPVLVVYDDSDRPSGIPERFSGSNSGNTATLTISRVEAGDEADYYCQVWDSSSDHWVFGGGTKLTVL
B4: P9B5 (scFv format) (scFv, not shown: a dimerising Fc or GST; small tags and cut ends)
scFv: EVQLLESGGGLVQPGGSLRLSCAASGFIFASYAMSWVRQAPGKGLEWVSEISSSGGSTTYADSVKGRFTISRDNSKNTLYLQMNSLRAEDTAVYYCARDRVMAGLGYDPFDYWGQGTLVTVSSGGGGSGGGGSGGGGSQSVLTQPPSASGTPGQRVTISCSGSSSNIGSNYVYWYQQLPGTAPKLLIYRNNQRPSGVPDRFSGSKSGTSASLAISGLRSEDEADYYCAAWDDSLSGVVFGGGTKLTVL
B5: P9F1 (scFv format) (scFv, not shown: a dimerising Fc or GST; small tags and cut ends)
scFv: EVQLLESGGGLVQPGGSLRLSCAASGFIFSSFAMSWVRQAPGKGLEWVSDISGSGASTYYADSVKGRFTISRDNSKNTLYLQMNSLRAEDTAVYYCASASGGSGSYWPYMDPWGQGTLVTVSSGGGGSGGGGSGGGGSQSVLTQPPSASGTPGQRVTISCSGSGSNIGSNYVYWYQQLPGTAPKLLIYRNNQRPSGVPDRFSGSKSGTSASLAISGLRSEDEADYYCAAWDGSLSRPVFGTGTKLTVL
B6: P3E10 (scFv format) (scFv)
scFv: QVQLVQSGAEVKKPGSSVKVSCKASGGTFSSYAIQWVRQAPGQGLEWMGGIVGSWGLANYAQKFQGRVTITTDKSTSTAYMELSSLRSEDTAVYYCATSAFGELASWGQGTLVTVSSGGGGSGGGGSGGGGSEIVLTQSPGTLSLSPGERATLSCRASQSVPSSQLAWYQQKPGQAPRLLIYDASSRATGIPDRFSGSGSGTDFTLTISRLEPEDFAVYYCQQYGSSPLTFGQGTKVEIK
B7: P5A3 (scFv format) (scFv, not shown: a dimerising Fc or GST; small tags and cut ends)
scFv: QVQLVQSGAEVKKPGSSVKVSCKASGGTFSSYYIGWVRQAPGQGLEWMGGIIPWFGTANYAQKFQGRVTITADKSTNTAYMELSSLRSEDTAVYYCAADHHDSPSGYTSGGFDVWGQGTLVTVSSGGGGSGGGGSGGGGSQSALTQPASVSGSPGQSITISCTGTSSDVGGYNYVSWYQQHPGKAPKLMIYEVSKRPSGVPDRFSGSKSGNTASLTVSGLQAEDEADYYCSSYAGSNTVVFGGGTKLTVL
B8: P4C7 (scFv format) (scFv, not shown: a dimerising Fc or GST; small tags and cut ends)
scFv: QVQLVQSGAEVKKPGSSVKVSCKASGGTFSSYTISWVRQAPGQGLEWMGGIIPAFGIANYAQKFQGRVTITADKSTSTAYMELSSLRSEDTAVYYCAKGGSYSLDYFDIWGQGTLVTVSSGGGGSGGGGSGGGGSEIVLTQSPGTLSLSPGERATLSCRASQYVSASLLAWYQQKPGQAPRLLIYGASTRATGIPDRFSGSGSGTDFTLTISRLEPEDFAVYYCQQYARSSTFGQGTKVEIK
B9: P1B11 (scFv format) (scFv, not shown: a dimerising Fc or GST; small tags and cut ends)
scFv: QVQLVQSGAEVKKPGSSVKVSCKASGGTFRSFDISWVRQAPGQGLEWMGRIIPILGYANYAQKFQGRVTITADESTSTAYMELSSLRSEDTAVYYCASDLGAPWAGYPFDPWGQGTLVTVSSGGGGSGGGGSGGGGSEIVLTQSPGTLSLSPGERATLSCRASQSVSSSELAWYQQKPGQAPRLLIYDASSRATGIPDRFSGSGSGTDFTLTISRLEPEDFAVYYCQQYDSSPLTFGQGTKVEIK
B10: P5F7 (scFv format) (scFv)
scFv: EVQLLESGGGLVQPGGSLRLSCAASGFTFSSYAMNWVRQAPGKGLEWVSSISGGGRSTYYADSVKGRFTISRDNSKNTLYLQMNSLRAEDTAVYYCARDLSPSDVGWGYGFDIWGQGTLVTVSSGGGGSGGGGSGGGGSEIVLTQSPATLSLSPGERATLSCRASQSVSSNLAWYQQKPGQAPRLLIYDTFTRATGIPARFSGSGSGTDFTLTISRLEPEDFAVYYCQQYGSSPPTFGQGTRLEIK
B11: P7H3 (scFv format) (scFv, not shown: a dimerising Fc or GST; small tags and cut ends)
scFv: EVQLLESGGGLVQPGGSLRLSCAASGFTFSSYAMHWVRQAPGKGLEWVSAISGSGGSTYYADSVKGRFTISRDNSKNTLYLQMNSLRAEDTAVYYCARGTRWWWGDAFDHWGQGTLVTVSSGGGGSGGGGSGGGGSQSVLTQPPSVSVAPGKTARITCGGNNIGSKSVHWYQQKPGQAPVLVIYYDSDRPSGIPERFSGSNSGNTATLTISRVEAGDEADYYCQVWDSSTAWVFGGGTKLTVL
B12: P1B4 (scFv format) (scFv, not shown: a dimerising Fc or GST; small tags and cut ends)
scFv: QVQLVQSGAEVKKPGSSVKVSCKASGGVFSRYALSWVRQAPGQGLEWMGGIIPMLGFANYAQKFQGRVTITADESTSTAYMELSSLRSEDTAVYYCATLDFGALDYWGQGTLVTVSSGGGGSGGGGSGGGGSEIVLTQSPGTLSLSPGERATLSCRASQSVPNEQLAWYQQKPGQAPRLLIYDASSRATGIPDRFSGSGSGTDFTLTISRLEPEDFAVYYCQQYGSPPLTFGQGTKVEIK
B13: P1A5 (scFv format) (scFv)
scFv: QVQLVQSGAEVKKPGSSVKVSCKASGGVFSRYALSWVRQAPGQGLEWMGGIIPMLGFANYAQKFQGRVTITADESTSTAYMELSSLRSEDTAVYYCATLDFGALDYWGQGTLVTVSSGGGGSGGGGSGGGGSEIVLTQSPGTLSLSPGERATLSCRASQAVDSSDLAWYQQKPGQAPRLLIYDAYTRPSGIPDRFSGSGSGTDFTLTISRLEPEDFAVYYCQQYGSSPLTFGGGTKLEIK

Consider 13 molecules from patent US12296012 (Pfizer, dated 2025).

This assay addresses T1, human FLT3. Nature of the assay: SPR Biacore T200, 37C; scFv format.
In turn, B1 registered a Kd of 58.3 nM, a koff of 0.00933 s⁻¹, an association rate constant (kon) of 160000 M⁻¹ s⁻¹ and a t1/2 of 1 min.

B2 returned an equilibrium dissociation constant (Kd) of 3.3 nM, a koff of 0.000305 s⁻¹, a kon of 93500 M⁻¹ s⁻¹ and a t1/2 of 37.9 min.

As to B3, the Kd amounted to 27.7 nM, the koff is 0.00241 s⁻¹, the kon amounted to 87000 M⁻¹ s⁻¹ and the t1/2 was found to be 4.8 min.

With B4, the Kd is 18.1 nM, the koff was 0.000687 s⁻¹, the on-rate (kon) came out at 38000 M⁻¹ s⁻¹ and the t1/2 was determined as 16.8 min.

On to B5, for which the Kd was 126 nM, the koff stood at 0.0286 s⁻¹, the kon worked out at 226000 M⁻¹ s⁻¹ and the t1/2 was found to be 0.4 min.

For B6, the Kd came to 65.1 nM, the koff worked out at 0.0112 s⁻¹, the on-rate constant (kon) is 172000 M⁻¹ s⁻¹ and the t1/2 was 1 min.

As for B7, the affinity, expressed as Kd, was 216 nM; the koff was 0.0175 s⁻¹; the kon is 81000 M⁻¹ s⁻¹; the t1/2 was determined as 0.7 min.

For the molecule B8, the Kd stood at 13.6 nM, the off-rate (koff) amounted to 0.00164 s⁻¹, the association rate constant (kon) was determined as 121000 M⁻¹ s⁻¹ and the t1/2 turned out to be 7 min.

As to B9, the Kd is 30.3 nM, the koff came to 0.00257 s⁻¹, the kon was found to be 84700 M⁻¹ s⁻¹ and the t1/2 is 4.5 min.

B10 came in with a Kd of 1 nM, a koff of 0.000197 s⁻¹, a kon of 189000 M⁻¹ s⁻¹ and a t1/2 of 59 min.

In turn, B11 displayed a Kd of 9.1 nM, a koff of 0.00187 s⁻¹, a kon of 205000 M⁻¹ s⁻¹ and a t1/2 of 6.2 min.

In turn, B12 showed a Kd of 27.3 nM, a koff of 0.00327 s⁻¹, a kon of 120000 M⁻¹ s⁻¹ and a t1/2 of 3.5 min.

In turn, B13 came in with a Kd of 1.1 nM, a koff of 0.000292 s⁻¹, an on-rate constant (kon) of 259000 M⁻¹ s⁻¹ and a t1/2 of 40 min.
